± gives the uncertainty stated by the source.
Test: self-splicing fitness, log relative to wild type (ln ratio); higher = more splicing; Tetrahymena group I intron in knt gene, E. coli kanamycin selection, DiMSum; sequences stand for … in CUCUCU…GGAGGGAAAAGUUAUCAGGCAUGCACCUGGUAGCUAGUCUUUAAACCAAUAGAUUGCAUCGGUUUAAAAGGCAAGACCGUCAAAUUGCGGGAAAGGGGUCAACAGCCGUUCAGUACCAAGUCUCAGGGGAAACUUUGAGAUGGCCUUGCAAAGGGUAUGGUAAUAAGCUGACGGACAUGGUCCUAACCACGCAGCCAAGUCCUAAGUCAACAGAUCUUCUGUUGAUAUGGAUGCAGUUCACAGACUAAAUGUCGGUCGGGGAAGAUGUAUUCUUCUCAUAAGAUAUAGUCGGACCUCUCCUUAAUGGGAGCUAGCGGAUGAAGUGAUGCAACACUGGAGCCGCUGGGAACUAAUUUGUAUGCGAAAGUAUAUUGAUUAGUUUUGGAGUACUCGUGGUCG
Method in brief: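 The eight P1ex-region nucleotides of an intron in the knt kanamycin-resistance gene on pET-22b(+) were all randomised and the library put into E. coli BL21(DE3). Six replicate transformations were grown overnight at 37°C or 30°C on LB agar with or without 25 μg/mL kanamycin, together with 100 μg/mL carbenicillin, 50 μM IPTG and 0.2% rhamnose. Colonies were pooled and amplicon-sequenced on an Illumina HiSeq 2500. Fitness from DiMSum is the error-weighted combination of wild-type-normalised replicate fold changes, kanamycin over none.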

| Sequence | self-splicing fitness (ln) (30 °C) | self-splicing fitness (ln) (37 °C) |
| --- | --- | --- |
| UGACAGCAAUAUUACGCUAC | -2.24 ± 0.43 | -1.56 ± 0.26 |
| UGACAGCAAUAUUACGCUGU | -4.01 ± 0.24 | -3.42 ± 0.27 |
| UGACAGCAAUAUUACGCUUC | -3.56 ± 0.25 | -2.29 ± 0.23 |
| UGACAGCAAUAUUACGGACG | 0.0374 ± 0.078 | 0.415 ± 0.11 |
| UGACAGCAAUAUUACGGAUU | -2.54 ± 0.094 | -2.29 ± 0.13 |
| UGACAGCAAUAUUACGGCAA | -1.41 ± 0.14 | -0.13 ± 0.17 |
| UGACAGCAAUAUUACGUCAC | -3.74 ± 0.17 | -3.16 ± 0.23 |
| UGACAGCAAUAUUACGUCGA | -0.222 ± 0.092 | -0.143 ± 0.098 |
| UGACAGCAAUAUUACGUGGU | -3.23 ± 0.15 | -2.22 ± 0.12 |
| UGACAGCAAUAUUACGUGUG | -0.953 ± 0.06 | -0.807 ± 0.069 |
| UGACAGCAAUAUUACGUGUU | -4.32 ± 0.19 | -2.22 ± 0.19 |
| UGACAGCAAUAUUACGUUAA | -0.645 ± 0.1 | -1.16 ± 0.09 |
| UGACAGCAAUAUUACGUUAG | -1.01 ± 0.066 | -0.987 ± 0.089 |
| UGACAGCAAUAUUACGUUAU | -3.65 ± 0.19 | -3.04 ± 0.21 |
| UGACAGCAAUAUUACGUUUC | -1.65 ± 0.29 | -1.5 ± 0.33 |
| UGAGAGCAAUAUUACGAAUG | -2.97 ± 0.36 | -1.09 ± 0.46 |
| UGAGAGCAAUAUUACGAAUU | -3.84 ± 0.16 | -2.79 ± 0.17 |
| UGAGAGCAAUAUUACGACAU | -3.847 ± 0.037 | -2.82 ± 0.048 |
| UGAGAGCAAUAUUACGAGCC | -1.9 ± 0.33 |  |
| UGAGAGCAAUAUUACGAGCU |  | -2.53 ± 0.49 |

| Sequence | self-splicing fitness (ln) (30 °C) | self-splicing fitness (ln) (37 °C) |
| --- | --- | --- |
| UGAGAGCAAUAUUACGAUAG | -3.19 ± 0.38 | -2.11 ± 0.26 |
| UGAGAGCAAUAUUACGAUGG | -3.59 ± 0.23 | -2.72 ± 0.2 |
| UGAGAGCAAUAUUACGAUUG | -2.57 ± 0.27 | -1.14 ± 0.27 |
| UGAGAGCAAUAUUACGCUGG | -3.87 ± 0.22 | -2.67 ± 0.25 |
| UGAGAGCAAUAUUACGGAAG | -3.67 ± 0.23 | -2.2 ± 0.31 |
| UGAGAGCAAUAUUACGGUUA | -1.14 ± 0.23 | -1.11 ± 0.21 |
| UGAGAGCAAUAUUACGGUUU | -2.16 ± 0.4 |  |
| UGAGAGCAAUAUUACGUAGG | -2.48 ± 0.35 | -1.12 ± 0.41 |
| UGAGAGCAAUAUUACGUCUG | -2.76 ± 0.42 | -1.88 ± 0.33 |
| UGAGAGCAAUAUUACGUGCC |  | -2.99 ± 0.43 |
| UGAGAGCAAUAUUACGUGGA | -3.18 ± 0.28 | -2.95 ± 0.47 |
| UGAGAGCAAUAUUACGUUAC |  | -1.79 ± 0.3 |
| UGAGAGCAAUAUUACGUUCA | -0.924 ± 0.12 | -0.794 ± 0.12 |
| UGAGAGCAAUAUUACGUUUA | -3.46 ± 0.39 |  |
| UGAUAGCAAUAUUACGACGG | -1.4 ± 0.19 | 0.124 ± 0.18 |
| UGAUAGCAAUAUUACGACGU | -2.71 ± 0.24 | -1.17 ± 0.37 |
| UGAUAGCAAUAUUACGAGCU | -1.44 ± 0.15 | -0.828 ± 0.17 |
| UGAUAGCAAUAUUACGAUCU | 0.499 ± 0.12 | 0.105 ± 0.16 |
| UGAUAGCAAUAUUACGAUGA | -0.925 ± 0.15 | -0.791 ± 0.12 |
| UGAUAGCAAUAUUACGCCAG | -1.59 ± 0.23 | -0.994 ± 0.49 |

— the supplement of paper PMC7877785
